Data: paper PMC6753213

Key:
[1] = biological target: AMC011 SOSIP-I53-50A (HIV-1 (AMC011, Clade B)); assay: not stated; purified fusion proteins; result shown in Supplementary Fig. 2d, e (not shown)
[2] = biological target: BG505 SOSIP-I53-50A.1NT1 (HIV-1 (BG505)) (UniProt Q2N0S6); assay: negative-stain EM
[3] = biological target: BG505 SOSIP-I53-50A.1NT1 (HIV-1 (BG505)) (UniProt Q2N0S6); assay: SEC; SOSIP fusion protein after PGT145 purification, Superose 6 Increase, Assembly Buffer II (25 mM Tris, 500 mM NaCl, 5% glycerol pH 8.2); trimer and aggregate peaks
[4] = biological target: ConM SOSIP-I53-50A (HIV-1 (consensus of Group M)); assay: not stated; purified fusion proteins; result shown in Supplementary Fig. 2d, e (not shown)
[5] = biological target: ZM197M SOSIP-I53-50A (HIV-1 (ZM197M, Clade C)); assay: as above

AMC011 SOSIP-I53-50A (designed binder) was tested, and the stoichiometry N [1] was 3.
Work on “BG505 SOSIP-I53-50A.1NT1 (from UniProt Q2N0S6) (designed binder)” yielded a stoichiometry N [2] of 3 and a stoichiometry N [3] of 3.
ConM SOSIP-I53-50A (designed binder) gave a stoichiometry N [4] of 3.
ZM197M SOSIP-I53-50A (designed binder) gave a stoichiometry N [5] of 3.
